Source: article PMC9182133, “Cholesterol Dependent Activity of the Adenosine A2A Receptor Is Modulated via the Cholesterol Consensus Motif” (Molecules, 2022)

Assays:
[1] = molecular target: T1, A2AR S47A variant with rho-1d4 tag (human, UniProt P29274 1-412, S47A); test: SPR; His6-Gαs (1 µM injected) captured on a high-capacity Ni-NTA chip; purified receptor injected at 296 (legend: 267), 445 or 667 nM for 3 min, dissociation 5 min; 20 °C, 25 µL/min; 50 mM Tris-HCl pH 8, 0.1% DDM, 0.1% CHAPS, 0.02% CHS; channel with denatured Gαs subtracted; 1-1 binding model, fits of three biological replicates averaged; conditions: both partners purified
T1 construct: adenosine A2A receptor, human, with S47A (Ballesteros-Weinstein 2.45) in the cholesterol consensus motif; source: S. cerevisiae BJ5464 (pITy4, galactose induced), purified (Rho-1d4 resin, eluted with Rho-1d4 peptide) in DDM/CHAPS/CHS
T1 sequence (P29274 whole entry S47A): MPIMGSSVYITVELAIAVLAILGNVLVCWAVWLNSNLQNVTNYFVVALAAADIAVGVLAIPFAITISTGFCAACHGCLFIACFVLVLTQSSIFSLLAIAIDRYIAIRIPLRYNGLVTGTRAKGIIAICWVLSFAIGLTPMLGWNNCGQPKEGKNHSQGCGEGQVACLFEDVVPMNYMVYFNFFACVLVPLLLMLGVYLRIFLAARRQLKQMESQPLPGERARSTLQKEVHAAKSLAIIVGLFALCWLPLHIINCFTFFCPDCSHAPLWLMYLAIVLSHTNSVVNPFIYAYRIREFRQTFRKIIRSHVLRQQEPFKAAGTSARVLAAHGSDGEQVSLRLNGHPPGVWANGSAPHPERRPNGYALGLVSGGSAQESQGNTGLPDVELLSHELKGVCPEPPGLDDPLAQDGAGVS

[2] = molecular target: T2, wild-type human adenosine A2A receptor with rho-1d4 tag (pITy4-A2AR-1d4) (human, UniProt P29274 1-412); test: as above; conditions: both partners purified
T2 construct: adenosine A2A receptor, human, wild type; the abstract calls it full length; also called WT A2AR; source: S. cerevisiae BJ5464 (pITy4, galactose induced), purified (Rho-1d4 resin, eluted with Rho-1d4 peptide) in DDM/CHAPS/CHS
T2 sequence (P29274 whole entry): as the sequence (P29274 whole entry S47A) above, with A47S counted along it

- Kd [1]: 146 nM
- koff [1]: 0.00122 s⁻¹
- kon [1]: 18700 ± 2900 M⁻¹ s⁻¹
- Kd [2]: 74 nM
- koff [2]: 0.00066 s⁻¹
- kon [2]: 12700 ± 649 M⁻¹ s⁻¹
B1: Gαs protein (pET15b-Gαs, His6 tagged) (natural protein, UniProt P63092 1-394, looked up)
chain: MGCLGNSKTEDQRNEEKAQREANKKIEKQLQKDKQVYRATHRLLLLGAGESGKSTIVKQMRILHVNGFNGEGGEEDPQAARSNSDGEKATKVQDIKNNLKEAIETIVAAMSNLVPPVELANPENQFRVDYILSVMNVPDFDFPPEFYEHAKALWEDEGVRACYERSNEYQLIDCAQYFLDKIDVIKQADYVPSDQDLLRCRVLTSGIFETKFQVDKVNFHMFDVGGQRDERRKWIQCFNDVTAIIFVVASSSYNMVIREDNQTNRLQEALNLFKSIWNNRWLRTISVILFLNKQDLLAEKVLAGKSKIEDYFPEFARYTTPEDATPEPGEDPRVTRAKYFIRDEFLRISTASGDGRHYCYPHFTCAVDTENIRRVFNDCRDIIQRMHLRQYELL
notes: G protein alpha-s subunit; also called G protein; source: E. coli Rosetta (DE3), purified (Ni-NTA resin)
